Data as given in the supplement of paper PMC10567573.

B1: DYRK1B (parent)
chain: KKVLNHGYDDDNHDYIVRSGERWL
B2: ETS1 (parent)
chain: FSEPSFITESYQTLHPISSEELLS

Variants of: B1
Test: protein stability index of a GFP-peptide fusion (GPS, HEK-293T) (PSI 1-6); higher = more stable
Details: c terminus: a fixed tail appended
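Note: lentivirally expressed fusions sorted by FACS into six bins by GFP to DsRed ratio, PSI derived from sequencing read proportions per bin multiplied by bin number.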

Protein stability index of substitutions, site by site:
K1: A 3.11; H 3.39; G 3.5; C 2.38; E 3.24; D 3.62; F 2.41

Variants of: B2
Test: as above
Details: c terminus: a fixed tail appended

Protein stability index of substitutions, site by site:
T13: R 1.61; N 1.68; C 1.67; W 2.54; Q 2.4; E 2.07; L 1.99; P 2.11; S 2.35; A 2.16; G 1.9; H 1.62; K 1.93; M 1.28; F 1.53; V 2.21; D 2.23; Y 1.93; I 1.93
S18: A 1.93; C 2.2; M 2; Q 2.3; I 1.83; W 1.38; H 2.35; T 1.97; Y 2.24; E 2.18; V 2.13; L 1.99; R 2.19; K 1.49; D 2.33; P 2.08; G 1.8; N 2.04; F 1.79
Q12: K 1.85; A 2.1; C 2.24; G 1.84; F 1.98; T 1.59; N 2.26; V 1.62; S 1.88; R 1.92; H 2.05; D 2.52; P 1.91; M 1.95; L 2.45; I 1.58; W 2.42; E 2.27; Y 1.56
Y11: D 2.96; R 1.82; C 1.67; W 1.34; S 2.2; G 2.57; E 2.95; T 2.3; M 2.02; P 3.21; A 2.21; V 1.78; N 2.56; H 2.25; Q 2.57; L 1.71; K 2.81; I 2.04; F 1.73
H15: V 2.49; E 2.12; Q 2.29; I 2.03; A 2.27; D 2.48; N 1.71; S 1.91; Y 1.51; F 1.95; L 1.99; C 2.17; M 1.96; R 2.82; T 2.38; K 2.33; P 2.27; G 1.75; W 1.67
E21: N 1.85; M 2.1; V 2.2; I 1.81; T 2; G 1.91; H 2.24; Y 1.49; A 1.53; R 1.96; Q 2.06; C 1.79; W 1.99; K 1.84; L 1.93; S 1.52; D 1.74; P 1.94; F 1.99
S10: K 2.25; Q 2.35; D 2.82; W 1.5; Y 1.74; C 1.53; P 2.62; M 2.02; R 2.16; F 1.7; E 3; V 2.52; A 1.74; G 1.72; I 1.86; H 2.06; T 2.15; L 2.52; N 1.99
I17: P 2.34; Y 2.03; H 1.76; D 2.12; F 1.84; A 2.33; R 2.59; K 2.36; G 1.81; E 2.39; S 2.14; M 1.78; V 2.14; C 1.74; T 2.78; Q 2.31; N 2.34; W 2.06; L 2.45
P16: L 3.29; Y 1.67; A 1.68; I 1.6; T 1.9; S 2.21; D 1.81; K 1.88; E 1.95; N 1.89; H 1.81; M 1.47; F 2.08; Q 2.13; G 2.19; W 1.17; C 2.07; R 1.69; V 2.16
E9: R 2.24; N 1.62; C 2.25; W 2.06; D 1.88; I 2.57; Y 1.77; Q 2.02; H 2; K 1.97; G 1.88; M 2.32; A 1.76; S 2.25; V 2.05; L 1.5; P 1.75; F 2.58; T 1.94
L22: N 2.33; K 2.55; Y 2.04; C 1.97; D 2.16; T 1.97; S 2; M 2; Q 2.19; E 2.67; G 2.03; H 2.71; A 2.04; V 2.31; R 2.19; F 2.01; P 2.42; W 1.62; I 2.2
S24: K 2.49; P 2.04; T 1.99; E 2.54; M 1.97; Q 2.16; G 1.86; C 1.5; W 1.56; I 1.85; A 2.02; L 1.69; N 1.79; F 1.65; Y 1.79; R 1.86; D 2.15; V 1.62; H 1.91
E20: Q 2.12; V 2.04; M 2.28; D 1.63; K 1.82; A 1.92; W 1.61; C 1.8; R 2.08; G 1.62; S 2.11; T 2.08; F 1.77; L 1.95; N 1.7; H 2.14; Y 1.72; I 1.78; P 1.73
T8: I 1.98; P 3.5; F 1.95; Y 2.17; E 3.4; H 2.04; V 1.36; A 2.29; L 1.92; M 1.78; N 2.91; G 2.05; Q 2.59; C 2.22; S 2.38; D 3.47; R 2.12; K 2.32
S19: K 1.72; G 1.99; F 1.88; N 2.35; V 1.84; E 2.46; T 2.21; W 2; R 2.24; Y 1.7; C 1.78; H 1.94; D 2.31; Q 2.21; P 2.11; M 2.19; I 2.13; L 1.81; A 1.7
L23: R 2.16; Q 2.59; S 2.07; Y 1.78; I 1.52; H 2.61; E 2.44; F 2.38; P 2.14; M 2.03; T 2.29; D 2.47; G 1.98; V 2.06; C 1.97; W 1.81; A 2.57; K 2.83; N 2.31
L14: N 2.08; W 2.66; Q 2.48; K 2.19; R 2.07; F 1.74; G 2.19; I 1.94; S 2.44; M 1.88; Y 1.55; T 2.5; C 1.93; A 2.08; V 2.09; P 2.1; H 2.35; D 2.44; E 2.33
I7: Y 2.82; W 2.33; S 3.55; V 2.21; T 3.29
